Results from PMC12757795, “WRKY45 is a negative regulator of Botrytis cinerea resistance through the JA/ET signaling pathway in Arabidopsis”.

B1: ORA59-W3 (dsDNA)
DNA 1: CCATCTAACAACAAATTTGACCAAAAGTTTCCTTATT
DNA 2: AATAAGGAAACTTTTGGTCAAATTTGTTGTTAGATGG
B2: ORA59-W6 (dsDNA)
DNA 1: GAAACCGACGTTAGGTTTGACTATTTTATTTACAGTC
DNA 2: GACTGTAAATAAAATAGTCAAACCTAACGTCGGTTTC
B3: ORA59-W2 (dsDNA)
DNA 1: TAATCGCATCGCATGTTTGACCCATTTAGCCGCATAT
DNA 2: ATATGCGGCTAAATGGGTCAAACATGCGATGCGATTA
B4: ORA59-W1-M (dsDNA)
DNA 1: CGATTTAGCCGCATGTTTTTCCTATTTTGCCCACATA
DNA 2: TATGTGGGCAAAATAGGAAAAACATGCGGCTAAATCG

The binders below were run against GST-WRKY45 (UniProt Q9S763 1-147) (assay: EMSA; Beyotime chemiluminescent EMSA kit binding buffer (composition, salt and pH not stated), room temperature, 20 min, 6% native PAGE; unlabeled competitor 5x and 50x or 50-100x (Methods)). Details: protein: recombinant; tags: GST; label: biotin (end); blunt.
Sequence of GST-WRKY45 (Q9S763 whole entry): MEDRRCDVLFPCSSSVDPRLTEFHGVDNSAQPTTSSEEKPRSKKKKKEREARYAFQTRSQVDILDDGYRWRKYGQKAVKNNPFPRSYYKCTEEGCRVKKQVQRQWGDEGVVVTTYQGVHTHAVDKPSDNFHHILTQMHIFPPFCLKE

| Binder | binding result |
| --- | --- |
| B1 | binds |
| B2 | binds |
| B3 | binds |
| B4 | no binding |
